# How the values were obtained:
# [1] = test system: AR42J xenografts; assay: Dosimetry estimates of 225Ac-labeled variants from biodistribution data; format: in vivo, athymic nu/nu mice
# Excerpt: To evaluate the organ-level radiation absorbed dose resulting from different DOTA-TATE derivatives, we calculated the total effective dose per unit of injected activity (Eff Dose/IA, mSv/MBq) for ^225Ac-labeled variants based on biodistribution data in AR42J xenograft-bearing mice (Tables S5).
# Estimated absorbed doses for individual organs for ^225Ac- and ^86Y-labeled DOTA-TATE variants were derived from residence times calculated using %IA/g data from biodistribution studies. The time–activity curves incorporated data from both radionuclides to provide complete coverage of early and late time points. Details of the dosimetry methodology, including time–activity curve construction, integration approach, decay assumptions, and conversion to effective dose, are provided in the Supplementary Information.
# Dosimetry: The dosimetry was calculated by measuring the residence time per gram for each organ using the percent injected activity per gram (%IA/g) data collected for the biodistribution study. Because two biodistribution data sample groups were collected, one for the 86Y and the other for the 225Ac variant of the three DOTA-TATE variants (DOTA-TATE, DOTA-MVK(ε)- TATE, and DOTA-β-Gal-TATE) the %IA/g time activity curves (TAC) of the 86Y variant were merged with the 225Ac TACs. This was possible because of the difference in half lives between 86Y and 225Ac being 14.74 and 237.8 hours respectively setting the measurement time points to be 1, 4 and 24 hours for the 86Y ligands and 24, 96 hours for 225Ac. The full time activity curve is thus made up of the 1 and 4 hour time points of the 86Y %IA/g data points, an average of the common 24 hour time point of the 86Y and 225Ac %IA/g data points and the last 96 hour %IA/g time point of the 225Ac samples. The full 4 time points of 1, 4, 24, and 96 hours making up the […]
# from which the residence times were calculated.
# The integration of the TAC was performed using trapezoidal interpolation between time points.
# The first time point assumed constant activity and a decay curve with the half life of the radioisotope was used to estimate activity beyond 96 hours. The average %IA/g was used for each tissue sample for each time point and the resulting standard deviation of the average was then used as the error estimate per time point to propagate through the residence time calculation.
# Using the residence time for each TAC, the dose was calculated by looking up the dose per decay for each alpha, beta (positron and electron from nuclear beta decay) and electron emission listed in the nuclear data sheets provided by the Brookhaven National Laboratory National Nuclear Data Center. Since the 225Ac decays via a complicated decay chain, it is assumed that the dose from the daughters remains in the tissue assuming no biological dissemination once the 225Ac decays breaking the bonds of the DOTA-TATE ligand. The following mean dose per decay were used. For 225Ac, 27.58MeV/Bq-s for alpha emissions, 1.33MeV/Bq-s for beta plus electron emissions. For 86Y, 0.219 MeV/Bq-s for beta and electron emissions. Gamma emissions were ignored because of the small size of the tissue samples have small gamma absorption effects which would contribute negligibly to the dose calculation. Furthermore, dosimetry estimate […]
# inter organ activity can be calculated(62).
# To estimate the effective dose in mSv/MBq, a radiological factor of 5 was used to multiply the dose calculated from the alpha ionizations while a factor of 1 was used for the beta and electron ionizations to convert from mGy/MBq to mSv/MBq (63, 64).
# [2] = Histopathology (H&E) after two-cycle therapy; format: in vivo, athymic nu/nu mice
# Description: To further assess tissue-level toxicity at the conclusion of the two-cycle therapy study, kidneys, livers, spleens, and tumors from representative mice were collected and evaluated histologically using hematoxylin and eosin (H&E) staining. Microscopic pathology was assessed and recorded in the MHL Pathology Database (Zaphod) according to a standardized five-point grading scale (normal, minimal, mild, moderate, marked). Terminology and criteria for pathological findings were consistent with the INHAND (International Harmonization of Nomenclature and Diagnostic Criteria) guidelines developed by the Society of Toxicologic Pathology.
# At the conclusion of the two-cycle therapy study, kidneys, livers, spleens, and tumors from representative mice were collected and processed for histological evaluation using hematoxylin and eosin (H&E) staining. Microscopic pathology was assessed and recorded in the MHL Pathology Database (Zaphod) using a standardized five-point ordinal grading system (normal, minimal, mild, moderate, marked). Terminology and diagnostic criteria were consistent with the International Harmonization of Nomenclature and Diagnostic Criteria (INHAND) guidelines established by the Society of Toxicologic Pathology (https://www.toxpath.org/inhand.asp)([57]).
# [3] = 225Ac-labeled, AR42J xenografts, from biodistribution time-activity curves, alpha factor 5, mean, n = 4–5
# [4] = 225Ac-labeled, dosimetry estimate
# [5] = absorbed-dose estimate at 148 kBq per mouse
SMILES,"Absorbed dose to kidney ([1]; mouse, in vivo)","Absorbed dose to tumor ([1]; mouse, in vivo)","Total effective dose per injected activity, Blood ([1]; mouse, in vivo)","Total effective dose per injected activity, Femur ([1]; mouse, in vivo)","Total effective dose per injected activity, Heart ([1]; mouse, in vivo)","Total effective dose per injected activity, Intestine ([1]; mouse, in vivo)","Total effective dose per injected activity, Kidney ([1]; mouse, in vivo)","Total effective dose per injected activity, Liver ([1]; mouse, in vivo)","Total effective dose per injected activity, Lung ([1]; mouse, in vivo)","Total effective dose per injected activity, Muscle ([1]; mouse, in vivo)","Total effective dose per injected activity, Spleen ([1]; mouse, in vivo)","Total effective dose per injected activity, Tumor ([1]; mouse, in vivo)","Glomerulopathy, percentage of mice with grade 0 ([2]; mouse, in vivo)","Glomerulopathy, percentage of mice with grade 1+ ([2]; mouse, in vivo)","Mice with mild, focal hepatocyte injury ([2]; mouse, in vivo)","Tubular damage, percentage of mice with grade 3+ ([2]; mouse, in vivo)",other results
"CSCC[C@H](NC(=O)CN1CCN(CC(=O)O)CCN(CC(=O)O)CCN(CC(=O)O)CC1)C(=O)N[C@H](C(=O)N[C@@H](CCCCNC(=O)CCCC(=O)N[C@H](Cc1ccccc1)C(=O)N[C@H]1CSSC[C@@H](C(=O)N[C@H](C(=O)O)[C@@H](C)O)NC(=O)[C@H]([C@@H](C)O)NC(=O)[C@H](CCCCN)NC(=O)[C@@H](Cc2c[nH]c3ccccc23)NC(=O)[C@H](Cc2ccc(O)cc2)NC1=O)C(=O)O)C(C)C [^225Ac-DOTA-MVK(ε)-TATE, metal not drawn]",5.7 Gy,20.4 Gy,3.44E+03 mSv/MBq,4.19E+04 mSv/MBq,1.06E+04 mSv/MBq,2.36E+04 mSv/MBq,1.85 × 10^5 mSv/MBq,1.02E+05 mSv/MBq,1.95E+04 mSv/MBq,7.16E+03 mSv/MBq,2.55E+04 mSv/MBq,6.64 × 10^5 mSv/MBq,50%,50%,1 of 6,17%,"Reduction of kidney dose versus 225Ac-DOTA-TATE ([1]; mouse, in vivo): 65 to 70%; Tubular damage, percentage of mice with grade 0 ([2]; mouse, in vivo): 67%; Tubular damage, percentage of mice with grade 1+ ([2]; mouse, in vivo): 17%"
"C[C@@H](O)[C@H](NC(=O)[C@@H]1CSSC[C@H](NC(=O)[C@@H](Cc2ccccc2)NC(=O)CN2CCN(CC(=O)O)CCN(CC(=O)O)CCN(CC(=O)O)CC2)C(=O)N[C@@H](Cc2ccc(O)cc2)C(=O)N[C@H](Cc2c[nH]c3ccccc23)C(=O)N[C@@H](CCCCN)C(=O)N[C@@H]([C@@H](C)O)C(=O)N1)C(=O)O [^225Ac-DOTA-TATE, metal not drawn, reference compound]",16.2 Gy,13.2 Gy,4.00E+03 mSv/MBq,5.86E+04 mSv/MBq,1.42E+04 mSv/MBq,3.04E+04 mSv/MBq,5.27 × 10^5 mSv/MBq,6.47E+04 mSv/MBq,3.85E+04 mSv/MBq,9.33E+03 mSv/MBq,3.41E+04 mSv/MBq,4.30 × 10^5 mSv/MBq,17%,33%,1 of 6,33%,"Glomerulopathy, percentage of mice with grade 2+ ([2]; mouse, in vivo): 17%; Glomerulopathy, percentage of mice with grade 3+ ([2]; mouse, in vivo): 33%; Tubular damage, percentage of mice with grade 2+ ([2]; mouse, in vivo): 50%; Tubular damage, percentage of mice with grade 4+ ([2]; mouse, in vivo): 17%"
"C[C@@H](O)[C@H](NC(=O)[C@@H]1CSSC[C@H](NC(=O)[C@@H](Cc2ccccc2)NC(=O)CCCC(=O)Nc2cc(COC(=O)N(C)CCNC(=O)CN3CCN(CC(=O)O)CCN(CC(=O)O)CCN(CC(=O)O)CC3)ccc2O[C@@H]2O[C@H](CO)[C@H](O)[C@H](O)[C@H]2O)C(=O)N[C@@H](Cc2ccc(O)cc2)C(=O)N[C@H](Cc2c[nH]c3ccccc23)C(=O)N[C@@H](CCCCN)C(=O)N[C@@H]([C@@H](C)O)C(=O)N1)C(=O)O [^225Ac-DOTA-β-Gal-TATE, metal not drawn]",–,–,–,–,–,–,–,–,–,–,–,–,–,–,–,–,"Total effective dose per injected activity, Femur [1, 3]: 7.96E+04 mSv/MBq; Total effective dose per injected activity, Heart [1, 3]: 1.20E+04 mSv/MBq; Total effective dose per injected activity, Intestine [1, 3]: 2.87E+04 mSv/MBq; Total effective dose per injected activity, Kidney [1, 3]: 1.56 × 10^5 mSv/MBq; Total effective dose per injected activity, Liver [1, 3]: 1.34E+05 mSv/MBq; Total effective dose per injected activity, Lung [1, 3]: 1.91E+04 mSv/MBq; Total effective dose per injected activity, Muscle [1, 3]: 1.02E+04 mSv/MBq; Total effective dose per injected activity, Spleen [1, 3]: 3.37E+04 mSv/MBq; Total effective dose per injected activity, Tumor [1, 3]: 1.06 × 10^6 mSv/MBq; Total effective dose per injected activity, Blood ([1]; 225Ac-labeled, AR42J xenografts, from merged 86Y/225Ac time-activity curves (1, 4, 24, 96 h), alpha factor 5, mean, n = 4–5): 3.93E+03 mSv/MBq; Tumor dose higher than that of 225Ac-DOTA-MVK(ε)-TATE [1, 4]: 1.59 fold; Tumor dose higher than that of 225Ac-DOTA-TATE [1, 4]: 2.46 fold; Absorbed dose to kidney [1, 5]: 4.8 Gy; Absorbed dose to tumor [1, 5]: 32.5 Gy; Reduction of kidney dose versus 225Ac-DOTA-MVK(ε)-TATE [1, 5]: ~15%; Tubular damage, percentage of mice with grade 0 ([2]; kidney H&E after two-cycle regimen, 0–4+ scale (normal, minimal, mild, moderate, marked), n = 6): 100%; Glomerulopathy, percentage of mice with grade 0 ([2]; kidney H&E after two-cycle regimen, 0–4+ scale, n = 6): 67%"

# Source: paper doi:10.1101/2025.09.11.675134, “Biodistribution-Driven Discovery Identifies a Glycosidase-Cleavable Linker to Reprogram Radiotheranostics” (bioRxiv, 2025)
